Results from PMC9536601 (2022).

Target: T1, Ad1 hexon, on wild-type human adenovirus type 1 virions (human adenovirus type 1)
T1 chain: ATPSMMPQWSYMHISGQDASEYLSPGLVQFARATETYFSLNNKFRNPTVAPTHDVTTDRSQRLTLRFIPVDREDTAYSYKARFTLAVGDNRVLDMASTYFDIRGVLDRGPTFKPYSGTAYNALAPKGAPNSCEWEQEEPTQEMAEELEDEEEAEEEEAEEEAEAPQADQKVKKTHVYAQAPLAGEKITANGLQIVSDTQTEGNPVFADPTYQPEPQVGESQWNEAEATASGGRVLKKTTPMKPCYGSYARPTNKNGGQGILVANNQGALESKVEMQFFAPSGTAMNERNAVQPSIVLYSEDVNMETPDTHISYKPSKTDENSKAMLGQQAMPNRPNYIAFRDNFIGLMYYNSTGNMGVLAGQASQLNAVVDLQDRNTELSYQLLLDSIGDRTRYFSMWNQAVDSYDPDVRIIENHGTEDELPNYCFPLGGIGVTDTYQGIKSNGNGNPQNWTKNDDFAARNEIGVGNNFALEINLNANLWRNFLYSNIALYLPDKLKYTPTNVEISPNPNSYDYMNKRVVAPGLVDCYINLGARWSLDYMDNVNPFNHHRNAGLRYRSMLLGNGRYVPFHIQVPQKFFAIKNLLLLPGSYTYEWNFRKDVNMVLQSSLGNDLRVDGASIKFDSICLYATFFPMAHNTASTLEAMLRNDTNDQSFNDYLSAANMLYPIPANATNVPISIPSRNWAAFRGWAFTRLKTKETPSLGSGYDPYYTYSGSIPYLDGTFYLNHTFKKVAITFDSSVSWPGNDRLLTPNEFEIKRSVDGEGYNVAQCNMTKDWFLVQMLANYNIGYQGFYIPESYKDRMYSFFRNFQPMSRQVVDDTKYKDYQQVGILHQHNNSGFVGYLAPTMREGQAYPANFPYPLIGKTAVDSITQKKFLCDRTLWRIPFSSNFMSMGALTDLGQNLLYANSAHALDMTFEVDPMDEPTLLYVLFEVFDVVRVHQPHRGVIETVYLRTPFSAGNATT
Assay: SPR

B1: mouse coagulation factor X (natural protein)
chain 1: ANSFFEEFKKGNLERECMEEICSYEEVREIFEDDEKTKEYWTKYKDGDQCESSPCQNQGACRDGIGGYTCTCSEGFEGKNCELFVRKLCRLDNGDCDQFCREEQNSVVCSCASGYFLGNDGKSCISTAPFPCGKITTGRR
chain 2: VALNTSDSELDLEDALLDEDFLSPTENPIELLNLNETQPERSSDDLVRIVGGRECKDGECPWQALLINEDNEGFCGGTILNEFYILTAAHCLHQARRFKVRVGDRNTEKEEGNEMVHEVDVVIKHNKFQRDTYDYDIAVLRLKTPITFRMNVAPACLPQKDWAESTLMTQKTGIVSGFGRTHEKGRQSNILKMLEVPYVDRNTCKLSTSFSITQNMFCAGYEAKLEDACQGDSGGPHVTRFKNTYYVTGIVSWGEGCARKGKYGIYTKVTTFLKWIDRSMKARVGPTAETPRTAGPPN
modifications: gamma-carboxylated glutamate residues in the Gla domain
Kd: 0.31 nM
